# Laboratory results reported in US20140087995A1 (published 2014).
# Numbered stars: 1 amine (or outer) side, 2 acyl side, 3 side chain; on linkers, the order of the positions; unused ones are H or OH. Bridge positions count the residues as written; N and C are the ends. Side chains are listed from the residue outwards. Ends that are not written are not given here. * marks the point of attachment. C20 diacid = O=C(O)CCCCCCCCCCCCCCCCCCC(=O)*; γGlu = O=C(O)[C@H](CCC(=O)[*:2])N[*:1]
# T1: human calcitonin receptor (human, UniProt P30988 25-474)
# T1 sequence (looked up): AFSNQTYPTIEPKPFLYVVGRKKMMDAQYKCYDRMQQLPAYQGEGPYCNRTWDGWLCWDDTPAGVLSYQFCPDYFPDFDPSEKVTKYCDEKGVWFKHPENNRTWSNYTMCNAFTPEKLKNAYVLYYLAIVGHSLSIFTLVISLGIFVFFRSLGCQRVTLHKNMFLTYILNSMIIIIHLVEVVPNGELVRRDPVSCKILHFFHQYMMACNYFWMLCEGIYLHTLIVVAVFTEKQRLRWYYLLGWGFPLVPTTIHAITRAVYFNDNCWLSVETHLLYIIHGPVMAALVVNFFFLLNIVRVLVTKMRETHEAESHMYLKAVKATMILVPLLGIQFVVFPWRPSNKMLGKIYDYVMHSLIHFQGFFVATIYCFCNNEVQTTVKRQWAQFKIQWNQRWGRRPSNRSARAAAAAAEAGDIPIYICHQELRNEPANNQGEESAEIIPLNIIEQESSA
# T2: human amylin 3(a) receptor (human calcitonin receptor co-expressed with RAMP-3) (human, UniProt P30988 25-474; O60896 24-148, limits assumed)
# T2 sequence (looked up) 1: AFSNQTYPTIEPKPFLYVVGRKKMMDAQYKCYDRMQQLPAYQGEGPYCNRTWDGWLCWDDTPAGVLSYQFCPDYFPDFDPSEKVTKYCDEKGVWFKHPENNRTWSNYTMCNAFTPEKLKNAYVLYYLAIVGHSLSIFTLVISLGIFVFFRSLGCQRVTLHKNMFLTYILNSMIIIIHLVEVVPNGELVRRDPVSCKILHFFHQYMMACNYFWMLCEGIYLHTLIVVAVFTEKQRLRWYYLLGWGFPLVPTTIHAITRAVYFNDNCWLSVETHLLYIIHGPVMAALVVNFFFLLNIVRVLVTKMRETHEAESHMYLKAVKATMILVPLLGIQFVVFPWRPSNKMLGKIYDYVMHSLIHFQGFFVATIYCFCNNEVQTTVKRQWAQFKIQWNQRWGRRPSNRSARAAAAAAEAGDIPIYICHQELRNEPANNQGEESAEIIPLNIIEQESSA
# T2 sequence (looked up) 2: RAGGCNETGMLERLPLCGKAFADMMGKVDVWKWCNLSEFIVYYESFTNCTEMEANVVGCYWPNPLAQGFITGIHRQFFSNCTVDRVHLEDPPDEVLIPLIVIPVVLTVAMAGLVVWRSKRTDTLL
# T3: rat calcitonin receptor (rat, UniProt P32214 25-516)
# T3 construct: whole, on cells; Used as membranes prepared from transiently transfected BHK tk'ts 13 cells (Assay VIII); also called rCTR; rat calcitonin (a) receptor
# T3 sequence (looked up): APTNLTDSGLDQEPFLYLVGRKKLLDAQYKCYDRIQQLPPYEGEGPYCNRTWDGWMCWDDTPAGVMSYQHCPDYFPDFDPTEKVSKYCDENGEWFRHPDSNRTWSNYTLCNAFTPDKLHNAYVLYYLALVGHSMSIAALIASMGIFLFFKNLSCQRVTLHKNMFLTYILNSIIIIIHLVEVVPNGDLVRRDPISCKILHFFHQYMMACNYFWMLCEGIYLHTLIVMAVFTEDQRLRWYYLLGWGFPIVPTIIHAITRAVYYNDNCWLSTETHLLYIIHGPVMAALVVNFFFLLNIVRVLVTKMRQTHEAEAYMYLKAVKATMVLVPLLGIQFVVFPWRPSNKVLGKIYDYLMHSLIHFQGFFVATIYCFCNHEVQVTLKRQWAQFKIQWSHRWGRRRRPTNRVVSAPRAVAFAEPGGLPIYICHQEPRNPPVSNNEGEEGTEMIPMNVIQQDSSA
# T4: human amylin receptor (amylin 3(a) receptor: human calcitonin receptor co-expressed with RAMP-3) (human, UniProt P30988 25-474; O60896 24-148, limits assumed)
# T4 construct: whole, on cells; Assayed as cell membranes of BHK570 Amylin 3(a)/CRE-luc cells (Assay V); also called hAmylin-R; hAmylinR
# T4 sequence (looked up) 1: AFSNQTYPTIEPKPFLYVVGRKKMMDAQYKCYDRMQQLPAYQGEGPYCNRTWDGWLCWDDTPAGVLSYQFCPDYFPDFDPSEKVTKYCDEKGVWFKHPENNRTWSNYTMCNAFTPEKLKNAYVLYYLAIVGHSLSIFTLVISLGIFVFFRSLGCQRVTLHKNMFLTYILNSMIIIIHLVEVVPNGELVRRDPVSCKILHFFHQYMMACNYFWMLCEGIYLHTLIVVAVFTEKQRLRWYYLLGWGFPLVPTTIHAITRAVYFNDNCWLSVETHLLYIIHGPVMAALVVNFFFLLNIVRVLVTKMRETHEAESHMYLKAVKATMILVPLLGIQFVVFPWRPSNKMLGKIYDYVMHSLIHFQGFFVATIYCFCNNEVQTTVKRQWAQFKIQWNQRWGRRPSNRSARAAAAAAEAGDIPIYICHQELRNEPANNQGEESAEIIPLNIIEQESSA
# T4 sequence (looked up) 2: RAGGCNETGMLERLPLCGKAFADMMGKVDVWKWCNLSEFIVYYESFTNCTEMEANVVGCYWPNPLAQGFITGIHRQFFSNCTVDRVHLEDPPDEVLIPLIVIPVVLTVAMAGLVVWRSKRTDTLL
# T5: human calcitonin receptor (human, UniProt P30988 25-474)
# T5 construct: whole, on cells; Assayed as cell membranes of BHK tk'ts 13 cells stably transfected with the human calcitonin receptor (Assay VII); also called hCTR; hCT
# T5 sequence (looked up): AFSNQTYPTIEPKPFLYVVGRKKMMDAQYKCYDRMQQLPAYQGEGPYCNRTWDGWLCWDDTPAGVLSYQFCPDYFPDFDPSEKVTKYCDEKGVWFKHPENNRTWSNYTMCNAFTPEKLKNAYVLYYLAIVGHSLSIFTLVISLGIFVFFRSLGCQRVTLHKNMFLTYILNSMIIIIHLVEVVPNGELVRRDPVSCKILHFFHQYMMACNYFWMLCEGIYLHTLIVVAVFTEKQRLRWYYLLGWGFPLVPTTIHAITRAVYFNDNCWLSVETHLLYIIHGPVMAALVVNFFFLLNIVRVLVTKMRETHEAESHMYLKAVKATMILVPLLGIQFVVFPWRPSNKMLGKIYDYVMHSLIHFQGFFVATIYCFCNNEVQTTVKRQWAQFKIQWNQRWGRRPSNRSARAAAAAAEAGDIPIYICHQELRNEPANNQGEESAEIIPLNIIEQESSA
# Key:
# [1] = biological target: T1, human calcitonin receptor; assay: cell-based or functional assay
# [2] = biological target: T2, human amylin 3(a) receptor (human …); assay: cell-based or functional assay
# rat calcitonin receptor = biological target: T3, rat calcitonin receptor; assay: SPA competition binding, displacement of 125I-calcitonin from membranes of BHK tk'ts 13 cells with rat calcitonin receptor (Assay VIII)
# [3] = biological target: T4, human amylin receptor (amylin 3(a) …); assay: SPA competition vs 125I-rat amylin, membranes of BHK cells with human amylin 3(a) receptor (Assay V)
# Method: The binding assay was performed using scintillation proximity assay (SPA) beads (RPNQ0001) from PerkinElmer and cell membranes from the Amylin 3(a)/CRE-luc cells (as described in Assay (II)) were used. Membranes were prepared in the following way; the cells were rinsed with PBS and incubated with Versene for approximately 5 min before harvesting. The cells were flushed with PBS and the cell-suspension was centrifuged for 5 min at 1000 rpm. Cells were homogenized (ultrathurrax) in a buffer containing 20 mM Na-HEPES and 10 mM EDTA (pH 7.4) and centrifuged at 20.000 rpm for 15 min. The resulting pellet was resuspended, homogenized and centrifuged (20.000 rpm, 15 min) in a buffer containing 20 mM Na-HEPES and 0.1 mM EDTA (pH 7.4, buffer 2). The resulting pellet was resuspended in buffer 2 and protein concentration was measured (BCA protein Assay, Pierce). The homogenate was kept cold during the whole procedure. The membranes were kept at −80° C. until use. The assay was performed in a 384 well Optiplate (PerkinElmer) in a total volume of 40 ul. Membranes were mixed with SPA beads. Final concentration of membranes 35 ng/μL final and SPA beads was 0.05 mg/well. […] Samples were analyzed on TopCounter™ (Packard). The IC₅₀ was calculated using (one site binding competition analysis) GraphPad Prism5 as a measure of receptor affinity.
# [4] = biological target: T5, human calcitonin receptor; assay: IC50 at hCTR divided by IC50 at hAmylin-R (SPA competition assays V and VII)
# Method in brief: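 Membranes (35 ng/μL final) + SPA beads, 50 mM Hepes pH 7.4 buffer with 1 mM CaCl2, 5 mM MgCl₂, 0.1% OA, 0.02% Tween20; 120 min, 25° C, shaking; centrifuged, counted; IC₅₀ by one-site binding competition.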
# [5] = biological target: T5, human calcitonin receptor; assay: SPA competition vs 125I-calcitonin, membranes of BHK cells with human calcitonin receptor (Assay VII)
# Method in brief: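 BHK hCTR membranes 35 ng/μL + SPA beads 0.05 mg/well; buffer 50 mM Hepes pH 7.4, 1 mM CaCl2, 5 mM MgCl₂, 0.1% OA, 0.02% Tween20. 120 min, 25° C., shaking. Scintillation count; IC50 by one-site binding competition.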
binder,measurement,setting,value
K([γGlu-γGlu-C20 diacid])CNTATCATQRLAEFLRHSSPNFGAIPSSTNVGPETP-NH2 (disulfide 2-7 (inferred)),hCTR funct. EC50 (pM),[1],102 pM
same,Ratio hCT/hAmylin funct.,[2],0.8
"KCNTATCATQRLADFLRHSSPNFGAIPSSTNVGSRTY-NH2 (disulfide 2-7 (inferred)) [[Asp14,Arg17,Pro21,Pro27,Arg35]-h-amylin]",IC50,rat calcitonin receptor,30.9 nM
"{C20 diacid-γGlu}-GRCNTATCATQRLAHFLRHSSPNFGAIPSSTNVGSNTY-NH2 (disulfide 3-8; SMILES CC[C@H](C)[C@H](NC(=O)[C@H](C)NC(=O)CNC(=O)[C@H](Cc1ccccc1)NC(=O)[C@H](CC(N)=O)NC(=O)[C@@H]1CCCN1C(=O)[C@H](CO)NC(=O)[C@H](CO)NC(=O)[C@H](Cc1c[nH]cn1)NC(=O)[C@H](CCCNC(=N)N)NC(=O)[C@H](CC(C)C)NC(=O)[C@H](Cc1ccccc1)NC(=O)[C@H](Cc1c[nH]cn1)NC(=O)[C@H](C)NC(=O)[C@H](CC(C)C)NC(=O)[C@H](CCCNC(=N)N)NC(=O)[C@H](CCC(N)=O)NC(=O)[C@@H](NC(=O)[C@H](C)NC(=O)[C@@H]1CSSC[C@H](NC(=O)[C@H](CCCNC(=N)N)NC(=O)CNC(=O)CC[C@H](NC(=O)CCCCCCCCCCCCCCCCCCC(=O)O)C(=O)O)C(=O)N[C@@H](CC(N)=O)C(=O)N[C@@H]([C@@H](C)O)C(=O)N[C@@H](C)C(=O)N[C@@H]([C@@H](C)O)C(=O)N1)[C@@H](C)O)C(=O)N1CCC[C@H]1C(=O)N[C@@H](CO)C(=O)N[C@@H](CO)C(=O)N[C@H](C(=O)N[C@@H](CC(N)=O)C(=O)N[C@H](C(=O)NCC(=O)N[C@@H](CO)C(=O)N[C@@H](CC(N)=O)C(=O)N[C@H](C(=O)N[C@@H](Cc1ccc(O)cc1)C(N)=O)[C@@H](C)O)C(C)C)[C@@H](C)O, also called compound 99)",IC50,[3],0.348 nM
same,Ratio hCT/hAmylin binding,[4],100
same,IC50,[5],35 nM
